Data set [1] has as its target Gag (Human immunodeficiency virus 1) (UniProt O93182). The following applies: cited from earlier work.
For data set [2], the system named is Δ1 SP1 Gag (HIV-1 (isolate BH10)). Nature of the data set: MST.
Data set [3] has as its system WM Gag (HIV-1 (isolate BH10)). Description: MST.

Sequence of Gag (O93182 2-500): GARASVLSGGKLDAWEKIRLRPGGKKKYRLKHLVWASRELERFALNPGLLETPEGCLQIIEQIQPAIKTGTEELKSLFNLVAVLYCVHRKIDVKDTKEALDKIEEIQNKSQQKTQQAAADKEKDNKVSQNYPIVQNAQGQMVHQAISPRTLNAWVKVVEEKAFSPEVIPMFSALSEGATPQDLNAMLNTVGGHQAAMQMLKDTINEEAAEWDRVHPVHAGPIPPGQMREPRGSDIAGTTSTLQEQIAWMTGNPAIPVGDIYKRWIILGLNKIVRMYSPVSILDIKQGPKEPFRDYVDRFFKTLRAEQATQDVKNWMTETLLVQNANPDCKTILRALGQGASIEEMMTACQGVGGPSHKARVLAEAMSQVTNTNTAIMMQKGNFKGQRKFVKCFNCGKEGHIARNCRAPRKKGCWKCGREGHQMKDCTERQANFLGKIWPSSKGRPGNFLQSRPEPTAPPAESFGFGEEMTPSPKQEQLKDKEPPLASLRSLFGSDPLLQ

In general, Kd refers to a measure of binding affinity in units of concentration. Regarding Gag (from UniProt O93182), in data set [1], the Kd is 5.5 µM.
For reverse complement RNA (non-Ψ control), the binding signal (fold difference vs WT Gag) in data set [2] was determined as 2.
Ψ RNA had a binding signal (fold decrease in affinity vs WT Gag) in data set [3] of 3.5. The same substance returned a binding signal (fold difference vs WT Gag) in data set [2] of 2.

Values taken from paper PMC7232488.
